Where two headings read alike, the source gives them in different places.
Columns and labels:
CBX1 chromodomain F50A = CBX1 chromodomain F50A (human, UniProt P83916 20-73, F50A); test: fluorescence polarisation
[1] = molecular target: T1, wild-type CBX1 chromodomain (human, UniProt P83916 20-73)
[2] = molecular target: T1, wild-type CBX1 chromodomain; test: fluorescence polarisation

T1 sequence (P83916 20-73): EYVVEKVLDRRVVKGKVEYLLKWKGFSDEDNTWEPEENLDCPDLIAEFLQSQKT
Sequence of CBX1 chromodomain F50A (P83916 20-73 F45A): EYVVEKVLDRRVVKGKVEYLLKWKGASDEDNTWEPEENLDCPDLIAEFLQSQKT

Row | Kd (CBX1 chromodomain F50A) [µM] | Binder | also measured
1 | 63.5 ± 6.2 | ARTKQTARKSTGGKA (trimethyl-lysine at 9; tetramethylrhodamine (TAMRA) label, position not stated) [TAMRA-labeled H3K9me3 peptide] | 
2 |  | ARTKQTARKSTGGKA (dimethyl-lysine at 9) [H3K9me2 peptide] | Kd [1]: 18.3 µM
3 | 14.1 ± 2.8 | ARTKQTARKSTGGKA (pentenyl-lysine at 9; tetramethylrhodamine (TAMRA) label, position not stated) [TAMRA-labeled pentenyl-modified H3K9 peptide] | 
4 |  | ARTKQTARKSTGGKA (allyl-lysine at 9; tetramethylrhodamine (TAMRA) label, position not stated) [TAMRA-labeled allyl-modified H3K9 peptide] | Kd [2]: 106 ± 20 µM
